Experimental findings from patent JP2020188737A are described below.

Test [1] deals with ヒトFcγRIIIaを固定化した担体(分離剤)を詰めたカラム(FcR9_Fカラム、WO2018/150973号の実施例5に記載). Briefly: FcγRIIIa affinity chromatography (FcR9_F column), peak area share; antibody from 9-day jar fermenter batch culture with 1 mM L-glutamine.
Test [2] shares this target. Briefly: FcγRIIIa affinity chromatography (FcR9_F column), peak area share; antibody from 9-day jar fermenter batch culture with 10 mM L-glutamine.

B1: 抗インターロイキン6レセプター(IL−6R)抗体 (antibody, human IgG1, V domains shown)
VH: QVQLQESGPGLVRPSQTLSLTCTVSGYSITSDHAWSWVRQPPGRGLEWIGYISYSGITTYNPSLKSRVTMLRDTSKNQFSLRLSSVTAADTAVYYCARSLARTTAMDYWGQGSLVTVSS
VL: DIQMTQSPSSLSASVGDRVTITCRASQDISSYLNWYQQKPGKAPKLLIYYTSRLHSGVPSRFSGSGSGTDFTFTISSLQPEDIATYYCQQGNTLPYTFGQGTKVEIK
With B1, in test [1], the ピーク1(結合力が弱いピーク)の面積割合 amounted to 25% and the ピーク3(結合力が強いピーク)の面積割合 was 36%. In test [2], the ピーク1(結合力が弱いピーク)の面積割合 turned out to be 42.3% and the ピーク3(結合力が強いピーク)の面積割合 amounted to 22.1%.
